From patent publication US20240352113A1 (JIANGSU HENGRUI PHARMACEUTICALS, published 2024)

Tests used:
Experiment in all cases: cell-based or functional assay
[1] = molecular target: T1, human ANGPTL3(17-170)-Flag-His (human, UniProt Q9Y5C1 17-170)
T1 sequence: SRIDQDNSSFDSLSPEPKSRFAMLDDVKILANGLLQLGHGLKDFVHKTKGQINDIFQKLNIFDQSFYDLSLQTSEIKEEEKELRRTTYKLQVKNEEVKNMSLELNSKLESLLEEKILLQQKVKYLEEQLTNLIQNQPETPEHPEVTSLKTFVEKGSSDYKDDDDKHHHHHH

[2] = molecular target: T2, mouse ANGPTL3(17-455)-His (mouse, UniProt Q9R182 17-455, biotin-labeled in the ELISA and HTRF assays (sites not given))
T2 sequence: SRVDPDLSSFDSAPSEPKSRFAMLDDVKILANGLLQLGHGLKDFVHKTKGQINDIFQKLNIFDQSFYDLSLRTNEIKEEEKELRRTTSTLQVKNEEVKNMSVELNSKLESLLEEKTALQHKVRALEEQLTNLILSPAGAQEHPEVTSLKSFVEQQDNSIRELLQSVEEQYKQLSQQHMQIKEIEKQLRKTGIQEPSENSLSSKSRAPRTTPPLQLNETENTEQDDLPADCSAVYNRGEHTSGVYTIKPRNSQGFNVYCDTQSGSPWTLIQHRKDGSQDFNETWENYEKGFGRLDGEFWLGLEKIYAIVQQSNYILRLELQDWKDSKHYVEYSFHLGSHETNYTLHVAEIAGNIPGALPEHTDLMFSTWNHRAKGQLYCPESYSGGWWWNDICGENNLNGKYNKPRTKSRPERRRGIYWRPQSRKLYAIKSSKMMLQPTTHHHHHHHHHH

[3] = molecular target: T3, cynomolgus monkey ANGPTL3(17-460)-His (cynomolgus monkey, UniProt Q9Y5C1 17-460 (human entry), biotin-labeled in the ELISA and HTRF assays (sites not given))
T3 chain: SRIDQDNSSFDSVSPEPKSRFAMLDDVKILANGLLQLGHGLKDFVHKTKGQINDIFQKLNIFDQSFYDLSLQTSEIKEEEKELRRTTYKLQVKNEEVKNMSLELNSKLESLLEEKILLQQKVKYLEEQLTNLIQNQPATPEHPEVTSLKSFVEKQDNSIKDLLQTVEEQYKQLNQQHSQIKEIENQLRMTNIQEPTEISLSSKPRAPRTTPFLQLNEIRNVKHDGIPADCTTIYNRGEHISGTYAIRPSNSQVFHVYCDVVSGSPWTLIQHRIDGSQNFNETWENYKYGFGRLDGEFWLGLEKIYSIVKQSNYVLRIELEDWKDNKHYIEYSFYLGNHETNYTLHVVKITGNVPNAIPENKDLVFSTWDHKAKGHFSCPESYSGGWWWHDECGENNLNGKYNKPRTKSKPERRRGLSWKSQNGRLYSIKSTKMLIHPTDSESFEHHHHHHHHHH

rat ANGPTL3(17-455)-His = molecular target: T4, rat ANGPTL3(17-455)-His (rat, biotin-labeled in the ELISA and HTRF assays (sites not given))
T4 chain: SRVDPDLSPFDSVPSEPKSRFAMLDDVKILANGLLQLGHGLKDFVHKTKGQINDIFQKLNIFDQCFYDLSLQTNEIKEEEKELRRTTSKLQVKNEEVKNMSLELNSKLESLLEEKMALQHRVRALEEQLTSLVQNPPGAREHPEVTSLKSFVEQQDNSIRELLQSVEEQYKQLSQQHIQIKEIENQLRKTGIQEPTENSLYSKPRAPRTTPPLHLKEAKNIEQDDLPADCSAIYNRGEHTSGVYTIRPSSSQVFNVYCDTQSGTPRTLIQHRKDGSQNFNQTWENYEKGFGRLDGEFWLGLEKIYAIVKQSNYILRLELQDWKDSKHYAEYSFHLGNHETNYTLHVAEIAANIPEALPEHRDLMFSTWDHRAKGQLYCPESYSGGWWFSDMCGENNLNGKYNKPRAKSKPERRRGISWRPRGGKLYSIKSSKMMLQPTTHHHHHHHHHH

B1: P8BG (antibody, human IgG4 S228P, kappa, V domains shown)
VH: QVQLVQSGAEVKKPGASVKVSCKASGYTFTSYDINWVRQAPGQGLEWVGLINPREDSTSYAQKFQGRVTMTRDTSTSTMYMELSSLRSEDTAVYFCARDLGSIREVLYYGMDVWGQGTTVTVSS
VL: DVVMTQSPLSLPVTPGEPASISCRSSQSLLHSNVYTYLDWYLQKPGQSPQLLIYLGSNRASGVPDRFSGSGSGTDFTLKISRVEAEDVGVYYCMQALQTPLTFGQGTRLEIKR
Q: For B1, which “IC50 (nM), activity in blocking the inhibition of LPL by ANGPTL3 (bovine LPL enzyme activity assay)” value [1] is on record?
A: The value was 75.3 nM.

Q: And the “IC50 (nM), activity in blocking the inhibition of LPL by ANGPTL3 (bovine LPL enzyme activity assay)” value [2]?
A: Its value is 41.5 nM.

Q: What about the “IC50 (nM), activity in blocking the inhibition of LPL by ANGPTL3 (bovine LPL enzyme activity assay)” value [3] of the same binder?
A: The value was 53.6 nM.

Q: What about the “IC50 (nM), activity in blocking the inhibition of LPL by ANGPTL3 (bovine LPL enzyme activity assay)” value (rat ANGPTL3(17-455)-His) of the same binder?
A: The value was 132 nM.
